Experimental data as given in patent publication US20080248008A1, “Inhibitors of Protein Kinase a Anchoring” (priority 2004, published 2008).
Entries after “also recorded” stand apart in the source; their conditions may differ. Each block holds one substance with its values, some of them ahead of it. Ends that are not written are not given here.

Key:
RI (A98S) = target: T1, RI (A98S) (Bos taurus, UniProt P00514, A98S); experiment: R-overlay (solid-phase binding) of 32P-labelled RI on membrane-synthesized peptides; set-up: species or system bovine; details: for RI binding (RI-32P-overlay, autoradiography): peptides on membrane, qualitative
T1 construct: made in house; host or cells: E. coli BL21 (B121 [sic])
Method: Autospot Peptide Array. Peptide arrays were synthesized on cellulose paper by using an Autospot Robot ASP222 (ABiMED, Langenfeld, Germany) as described (Frank, R., 1992, Tetrahedron 48, 123-132) or Multipep automated peptide synthesizer (INTAVIS Bioanalytical Instruments AG, Koeln, Germany) as described (Frank, R., 1992, Tetrahedron 48, 123-132).
R-overlay. R-overlays were conducted as described, using ^32P-labeled recombinant murine RII (Hausken, Z. E., et al., 1998 in Protein Targeting Protocols, ed. Clegg, R. A. (Humana, Totowa, N.J.), Vol. 88, pp. 47-64) or recombinant bovine RI (A98S) or by cold RI-overlay where bound RIα was detected by Western blot. Cold RI-overlay was performed by incubating the membranes with 250 nM RI overnight at 4° C., then the membranes were washed five times in TBST for 5 min. Detection of RI was performed using an anti-RI rabbit polyclonal antibody (Santa Cruz) at a concentration of 0.2 μg/μl for 1 hour at 4° C. Then the membranes were washed five times for 5 minutes in PBS followed by incubation with HRP-conjugated anti-rabbit IgGs (1:5000) for 1 hour at 4° C. The membranes were washed in PBS as described above before detection by Supersignal West Dura Extended Duration Substrate (Pierce).
Densitometric analysis. The densitometric analysis was performed using Scion Image (www.scioncorp.com) (Scion Coorperation, Mo., USA) or Quantity One version 4.5.0, (BioRad).

PKA-RIIα [1] = target: T2, PKA-RIIα (Homo sapiens, UniProt P13861); experiment: Immunofluorescence of PKA-RIIα at centrosomes in human T cells; format: cell-based; set-up: endogenous in cells; host or cells: human peripheral blood CD3+ T cells; details: human peripheral blood T cells
Method: Blots were developed by using Supersignal West Pico substrate (Pierce). For immunofluorescence polyclonal and monoclonal antibodies against RIα (Biogenesis), RIIα (Transduction laboratories) and AKAP450 (A24, Tasken et al., 2001, J. Biol. Chem, 276:21999-22002) were used as primary antibodies. Secondary antibodies (all Molecular Probes) were Alexa-488 conjugated anti-mouse and anti-rabbit IgG (both goat) and Alexa-555 anti-rabbit IgG (goat).
Immunofluorescence analysis of cells was performed as previously described (Collas, P. et al., 1996, J. Cell Biol. 135, 1715-1725). RI was detected by using an anti-RI monoclonal antibody (Transduction Laboratories) as a primary antibody at a […] and Alexa-488 as a secondary antibody (1:600, Goat anti Mouse IgGs, Molecular Probes). Immunofluorescence was performed on Y1 cells attached to collagen/fibronectin coated coverslips. Mitochondria were stained using MitoTracker Red CMXRos (Molecular Probes) in fresh medium with incubation at 37° C. for 30 min prior to cell fixation. All cells were washed in PBS, fixed with 3% paraformaldehyde and permeabilised using 0.1% Triton X-100. […] Alternatively, fluorescently labeled cells were examined using a Leica TCS SP1 confocal fluorescence microscope (Leica, Heidelberg, Germany) equipped with an Ar (488 nm) and two He/Ne (543 and 633 nm) laser lines. […]

PKA-RIIα [2] = target: T2, PKA-RIIα; experiment: Displacement of PKA-RII from the particulate fraction in T cells; format: cell-based; set-up: endogenous in cells; host or cells: human peripheral blood CD3+ T cells; details: 25 μM or 50 μM
Method: Displacement of PKA-RII from the particulate Fraction in T-cells. Negatively selected CD3^+ T-cells (20×10^6/3 ml/well) were cultured in 6-well plates with 0-50 μM Arg11-SuperAKAPIS (or 0-50 μM M3-Arg11) for 12 hours. Cells were lysed in 250 μl lysis buffer (50 mM Tris pH 7.4, 100 mM NaCl, 5 mM EDTA, 50 mM NaF, 10 mM Na-pyrofosfat, 1 mM Na3VO4, 1 mM PMSF, 0.7% triton X-100) and centrifuged at 14 000×g for 10 min. The sedimented proteins were resuspended in loading dye before being resolved by SDS/PAGE and detected by immunoblotting.
To assess the effect of MEME3-Arg11 on anchoring of PKA type II, T cells were treated with MEME3-Arg11 or Arg11-super-AKAP-is (as a positive control) and particulate fractions were isolated, followed by 10% PAGE and blotting onto a PVDF membrane (fraction no. 2-4, FIG. 17 in upper panel) and analysed by immunoblotting using antibodies against PKA-RIIα (FIG. 17, upper panel). The levels of PKA-RIIα in the particulate fractions were measured by densitometry of the autoradiograms (lower panel). The level of PKA-RIIα was set relative to that of the internal standard PKCα.

T1 sequence (P00514 whole entry A98S): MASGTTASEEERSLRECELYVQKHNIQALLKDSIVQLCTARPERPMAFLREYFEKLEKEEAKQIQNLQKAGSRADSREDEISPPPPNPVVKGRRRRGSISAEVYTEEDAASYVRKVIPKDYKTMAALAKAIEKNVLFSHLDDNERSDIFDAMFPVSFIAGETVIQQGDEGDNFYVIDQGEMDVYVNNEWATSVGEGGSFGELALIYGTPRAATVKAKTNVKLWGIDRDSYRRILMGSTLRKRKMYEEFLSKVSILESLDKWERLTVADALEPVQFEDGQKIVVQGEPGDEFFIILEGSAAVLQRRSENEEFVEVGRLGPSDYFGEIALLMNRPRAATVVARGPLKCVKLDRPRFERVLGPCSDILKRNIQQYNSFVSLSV
T2 sequence (P13861 whole entry): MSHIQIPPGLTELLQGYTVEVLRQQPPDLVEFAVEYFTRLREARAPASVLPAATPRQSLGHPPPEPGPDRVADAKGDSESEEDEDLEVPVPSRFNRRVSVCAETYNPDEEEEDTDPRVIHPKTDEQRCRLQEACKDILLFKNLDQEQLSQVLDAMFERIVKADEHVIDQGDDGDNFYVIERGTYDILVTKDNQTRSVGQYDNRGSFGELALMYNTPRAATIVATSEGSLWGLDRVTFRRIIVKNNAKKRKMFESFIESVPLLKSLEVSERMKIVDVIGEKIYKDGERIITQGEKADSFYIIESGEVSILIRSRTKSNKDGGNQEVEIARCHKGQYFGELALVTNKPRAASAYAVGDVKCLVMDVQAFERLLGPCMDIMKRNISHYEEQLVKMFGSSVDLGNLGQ

Substance: LKQYANQLASQVIKEATE [PDSM]
- RI binding (RI-32P-overlay, autoradiography) (RI (A98S)): same RI binding affinity as the full length PDSM sequence; also recorded: much higher RIα affinity compare to that of PV-38; also recorded: higher binding to RIα

- displacement of PKA-RIIα from centrosomes (PKA-RIIα [1]): specifically displaced PKA-RIIα
- reduction of PKA-RIIα in particulate fraction (PKA-RIIα [2]): approximately 80%
Substance: Arg11-super-AKAP-is: RIIα specific peptide, SuperAKAPIS (QIEYVAKQIVDYAIHQA) with eleven arginine residues (also: eleven arginine residues attached (Arg11), place not given here) [reference compound]

Substance: DELKQYANQLASQVIKEATE [PDSM consensus sequence]
- RI binding (RI-32P-overlay, autoradiography) (RI (A98S)): higher affinity for RI than the other R-binding motifs

- R-binding of D-amino acid derivatives (RIα and RIIα overlay) (RI (A98S); peptidomimetics on membrane): accepted
Substance: LEQYANQLADQIIKEATe [E18e]
